Reference: US20240239894A1 (AstraZeneca / MedImmune, published 2024)

How the values were obtained:
human B7-H4 on cells [1] = target: T1, human B7-H4 on cells (human, UniProt Q7Z7D3 25-282); experiment: cell-based or functional assay
T1 sequence: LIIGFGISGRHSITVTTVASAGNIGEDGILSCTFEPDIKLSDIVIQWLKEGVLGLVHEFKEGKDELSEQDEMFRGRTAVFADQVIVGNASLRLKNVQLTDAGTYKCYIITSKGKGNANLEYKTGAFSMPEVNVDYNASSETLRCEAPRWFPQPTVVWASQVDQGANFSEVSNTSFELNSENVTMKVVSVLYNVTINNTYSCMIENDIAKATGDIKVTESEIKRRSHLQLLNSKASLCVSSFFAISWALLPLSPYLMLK

[2] = target: T2, recombinant human B7-H4 (tag format not stated) (human, UniProt Q7Z7D3 25-259); experiment: SPR, antibody capture
T2 construct: also called huB7-H4; human B7-H4 antigen
T2 sequence: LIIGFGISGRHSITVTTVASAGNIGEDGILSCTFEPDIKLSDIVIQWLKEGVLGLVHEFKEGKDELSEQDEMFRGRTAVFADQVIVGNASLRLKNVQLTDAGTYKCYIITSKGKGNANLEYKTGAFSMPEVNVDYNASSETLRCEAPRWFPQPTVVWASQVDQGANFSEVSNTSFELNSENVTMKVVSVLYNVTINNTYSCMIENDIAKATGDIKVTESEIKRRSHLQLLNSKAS

human FcRn = human FcRn (human, UniProt P55899 24-297; P61769 21-119); experiment: SPR, steady state; steady state; human FcRn
Sequence of human FcRn (P55899 24-297 limits assumed, chain 1 of 2): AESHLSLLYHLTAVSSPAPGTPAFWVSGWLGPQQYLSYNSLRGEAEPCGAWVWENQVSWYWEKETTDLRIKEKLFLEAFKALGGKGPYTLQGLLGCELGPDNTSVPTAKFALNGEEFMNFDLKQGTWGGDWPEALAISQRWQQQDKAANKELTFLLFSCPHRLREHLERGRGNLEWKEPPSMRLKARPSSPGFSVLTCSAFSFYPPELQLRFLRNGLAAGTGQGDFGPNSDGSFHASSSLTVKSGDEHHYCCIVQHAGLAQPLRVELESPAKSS
Sequence of human FcRn (P61769 21-119 limits assumed, chain 2 of 2): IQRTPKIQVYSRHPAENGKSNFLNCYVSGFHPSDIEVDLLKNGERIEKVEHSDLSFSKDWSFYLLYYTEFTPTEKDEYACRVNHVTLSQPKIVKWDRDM

huFcγRI = huFcγRI (human, UniProt P12314 16-288); experiment: SPR, equilibrium KD; equilibrium KD; huFcγRI
Sequence of huFcγRI (P12314 16-288 limits assumed): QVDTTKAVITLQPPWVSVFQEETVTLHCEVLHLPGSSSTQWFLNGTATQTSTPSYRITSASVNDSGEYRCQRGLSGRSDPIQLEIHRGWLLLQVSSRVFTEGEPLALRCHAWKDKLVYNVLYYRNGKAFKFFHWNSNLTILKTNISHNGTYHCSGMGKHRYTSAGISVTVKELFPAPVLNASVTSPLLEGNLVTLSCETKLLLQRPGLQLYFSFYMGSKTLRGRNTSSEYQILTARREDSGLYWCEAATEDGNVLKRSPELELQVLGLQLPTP

[3] = target: T2, recombinant human B7-H4 (tag format not …); experiment: DELFIA-ELISA on immobilized recombinant human B7-H4
human B7-H4 on cells [4] = target: T1, human B7-H4 on cells; experiment: flow cytometry on HT29-huB7-H4 Clone 4 cells, MFI (geometric mean)
human B7-H4 on cells [5] = target: T1, human B7-H4 on cells; experiment: flow cytometry on HT29-huB7-H4 Clone 26 cells, MFI (geometric mean)
human B7-H4 on cells [6] = target: T1, human B7-H4 on cells; experiment: flow cytometry on MX-1 cells (endogenous human B7-H4), MFI (geometric mean)
human B7-H4 on cells [7] = target: T1, human B7-H4 on cells; experiment: flow cytometry on MDA-MB-468 cells (endogenous human B7-H4), MFI (geometric mean)
murine B7-H4 on cells = target: T3, murine B7-H4 on cells (mouse, UniProt Q7TSP5 25-257); experiment: flow cytometry on HEK293 JI TREX cells stably expressing murine B7-H4, MFI (geometric mean)
T3 construct: whole, on cells; also called muB7-H4
T3 sequence (looked up): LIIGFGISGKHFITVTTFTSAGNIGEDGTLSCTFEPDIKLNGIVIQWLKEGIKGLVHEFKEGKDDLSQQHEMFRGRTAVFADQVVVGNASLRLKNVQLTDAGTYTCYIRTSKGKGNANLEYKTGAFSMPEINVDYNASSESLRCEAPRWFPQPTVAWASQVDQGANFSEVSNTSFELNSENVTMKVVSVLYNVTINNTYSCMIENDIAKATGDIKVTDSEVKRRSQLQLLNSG

[8] = target: T4, cynomolgus monkey B7-H4 on cells (cynomolgus monkey, UniProt A0A2K5U6P5 25-282); experiment: flow cytometry on HEK293 JI TREX cells stably expressing cynomolgus monkey B7-H4, MFI (geometric mean)
T4 construct: whole, on cells; On HEK 293 cells; also called cynoB7-H4
T4 sequence: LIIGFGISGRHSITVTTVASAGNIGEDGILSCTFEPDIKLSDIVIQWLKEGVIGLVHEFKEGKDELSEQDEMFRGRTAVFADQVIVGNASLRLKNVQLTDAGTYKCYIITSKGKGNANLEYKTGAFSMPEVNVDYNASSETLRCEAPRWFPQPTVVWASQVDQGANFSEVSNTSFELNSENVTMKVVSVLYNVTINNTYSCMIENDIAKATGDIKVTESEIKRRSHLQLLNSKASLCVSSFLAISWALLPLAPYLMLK

[9] = target: T5, recombinant mouse B7-H4 (tag format not stated) (mouse, UniProt Q7TSP5 25-257, limits assumed); experiment: SPR
T5 construct: FlagHis10 or FcHis6 in the commercial antibody ELISA; also called murine B7-H4 antigen
T5 sequence (looked up): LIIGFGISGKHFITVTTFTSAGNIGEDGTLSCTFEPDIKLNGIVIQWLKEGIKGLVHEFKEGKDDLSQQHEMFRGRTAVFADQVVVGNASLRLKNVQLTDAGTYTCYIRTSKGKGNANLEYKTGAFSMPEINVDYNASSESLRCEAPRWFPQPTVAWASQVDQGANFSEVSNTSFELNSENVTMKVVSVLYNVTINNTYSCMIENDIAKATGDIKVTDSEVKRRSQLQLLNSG

[10] = target: T5, recombinant mouse B7-H4 (tag format not …); experiment: SPR; remark: listed apart in the source
[11] = target: T2, recombinant human B7-H4 (tag format not …); experiment: SPR, immobilized B7-H4
[12] = target: T6, recombinant cynomolgus monkey B7-H4 (tag format not stated) (cynomolgus monkey, UniProt A0A2K5U6P5 25-259); experiment: SPR, immobilized B7-H4
T6 construct: also called cyno B7-H4
T6 sequence: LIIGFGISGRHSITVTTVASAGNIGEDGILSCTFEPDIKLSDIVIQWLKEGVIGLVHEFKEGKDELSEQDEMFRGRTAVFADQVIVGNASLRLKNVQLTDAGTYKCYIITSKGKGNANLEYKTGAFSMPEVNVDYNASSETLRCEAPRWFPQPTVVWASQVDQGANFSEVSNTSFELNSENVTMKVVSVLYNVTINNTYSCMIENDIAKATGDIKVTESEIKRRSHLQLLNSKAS

[13] = target: T7, Human B7-H4 ECD-Flag-His10 (monomeric) (human, UniProt Q7Z7D3 25-259); experiment: KinExA 3200, Fab, N-curve analysis
T7 construct: Minimally biotinylated for KinExA; also called hB7H4-ECD-Flag-His10; B7-H4-FLAG
T7 sequence: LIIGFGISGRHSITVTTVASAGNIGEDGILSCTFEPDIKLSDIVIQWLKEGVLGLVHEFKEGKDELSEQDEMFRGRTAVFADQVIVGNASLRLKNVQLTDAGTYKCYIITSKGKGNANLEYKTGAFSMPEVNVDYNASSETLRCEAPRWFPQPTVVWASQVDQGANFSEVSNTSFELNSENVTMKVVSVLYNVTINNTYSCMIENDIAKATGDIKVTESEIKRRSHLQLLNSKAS

[14] = target: T7, Human B7-H4 ECD-Flag-His10 (monomeric); experiment: KinExA 3200, Fab at 5, 10 or 45 nM, 25 C, N-curve analysis
[15] = target: T2, recombinant human B7-H4 (tag format not …); experiment: ELISA, Maia format mAb (GLY)
[16] = target: T5, recombinant mouse B7-H4 (tag format not …); experiment: ELISA, Maia format mAb (GLY)
[17] = target: T2, recombinant human B7-H4 (tag format not …); experiment: ELISA, Maia format mAb (GLQ)
[18] = target: T5, recombinant mouse B7-H4 (tag format not …); experiment: ELISA, Maia format mAb (GLQ)
[19] = target: T8, Human B7-H4-Fc (Human B7H4 ECD, Fc_6His) (human); experiment: ELISA on coated human B7H4/Fc, absorbance 450 nm, [IgG] 0.006 to 100 nM
T8 construct: also called FcHis6 tagged human B7-H4
T8 sequence (Q7Z7D3 whole entry, looked up): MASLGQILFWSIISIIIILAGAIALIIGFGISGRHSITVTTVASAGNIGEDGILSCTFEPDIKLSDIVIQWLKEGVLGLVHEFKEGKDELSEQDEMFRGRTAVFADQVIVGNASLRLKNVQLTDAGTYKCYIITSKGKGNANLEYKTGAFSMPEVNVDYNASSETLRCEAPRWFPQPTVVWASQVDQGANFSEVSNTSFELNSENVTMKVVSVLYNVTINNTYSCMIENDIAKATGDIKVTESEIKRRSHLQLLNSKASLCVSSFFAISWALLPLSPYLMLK

B1: E02-GL-SG3932 (antibody, human IgG1, kappa)
heavy: not shown
light: DIQMTQSPSSLSASVGDRVTITCRASQDIRNDVGWYQQKPGKAPKRLIYAASRLQSGVPSRFSGSGSGTEFTLTISSLQPEDFATYYCLQHNSYPRTFGQGTKVEIKRTVAAPSVFIFPPSDEQLKSGTASVVCLLNNFYPREAKVQWKVDNALQSGNSQESVTEQDSKDSTYSLSSTLTLSKADYEKHKVYACEVTHQGLSSPVTKSFNRGEC
modifications: SG3932 on native cysteines (DAR about 8 for the whole antibody); SG3932 (mal-PEG8-val-ala linker with TOP1i warhead) on native cysteines through a thiosuccinimide linkage, about 8 drugs per antibody
notes: also called E02-INT-SG3932; B7-H4 targeting TOP1i-ADC; copies: 2 + 2
Human B7-H4 on cells [1]
  IC50, cytotoxicity (CellTiter-Glo) on HT29-huB7-H4 Clone 26: 0.036 g/mL (as printed; probably µg/mL)
  IC50, cytotoxicity (CellTiter-Glo) on MX-1: 0.029 µg/mL
  IC50, cytotoxicity (CellTiter-Glo, 6 days) on human B7-H4 transfected Ad293 cells: 0.0533 µg/mL
[2]
  Kd: 29.3 nM
  koff: 0.0028 s⁻¹
  kon: 95500 M⁻¹ s⁻¹
Human FcRn
  Kd: 4360 nM
huFcγRI
  Kd: 4.35 nM
[3]
  EC50: 1.71 nM
Human B7-H4 on cells [4]
  EC50 (read off the curve): ~0.07 µg/mL
Human B7-H4 on cells [5]
  EC50 (read off the curve): ~0.1 µg/mL
Human B7-H4 on cells [6]
  EC50 (read off the curve): ~0.1 µg/mL
Human B7-H4 on cells [7]
  EC50 (read off the curve): ~0.08 µg/mL

B2: E02-INT (antibody intermediate of E02-GL-SG3932) (antibody, human IgG1, kappa)
heavy: not shown
light: DIQMTQSPSSLSASVGDRVTITCRASQDIRNDVGWYQQKPGKAPKRLIYAASRLQSGVPSRFSGSGSGTEFTLTISSLQPEDFATYYCLQHNSYPRTFGQGTKVEIKRTVAAPSVFIFPPSDEQLKSGTASVVCLLNNFYPREAKVQWKVDNALQSGNSQESVTEQDSKDSTYSLSSTLTLSKADYEKHKVYACEVTHQGLSSPVTKSFNRGEC
notes: also called E02-GL antibody; antibody intermediate E02-INT
[2]
  Kd: 31.1 nM
  koff: 0.00292 s⁻¹
  kon: 93800 M⁻¹ s⁻¹
[3]
  EC50: 1.98 nM
Human B7-H4 on cells [4]
  EC50 (read off the curve): ~0.05 µg/mL
Human B7-H4 on cells [5]
  EC50 (read off the curve): ~0.07 µg/mL
Human B7-H4 on cells [6]
  EC50 (read off the curve): ~0.1 µg/mL
Human B7-H4 on cells [7]
  EC50 (read off the curve): ~0.08 µg/mL
Murine B7-H4 on cells
  EC50 (read off the curve): ~0.2 µg/mL
[8]
  EC50 (read off the curve): ~0.4 µg/mL

B3: E02_GL Fab (Fab, V domains shown)
VH: QVQLQQWGAGLLKPSETLSLACTVYGGSFSGYYWNWIRQPPGKGLEWIGEINHSGSTSYNPSLKSRVTISVDTSKNQFSLKLSSVTAADTAVYYCARVLYNWNVDSWGQGTLVTVSS
VL: DIQMTQSPSSLSASVGDRVTITCRASQDIRNDVGWYQQKPGKAPKRLIYAASRLQSGVPSRFSGSGSGTEFTLTISSLQPEDFATYYCLQHNSYPRTFGQGTKVEIK
notes: Fab of E02-GL; also called EO2_GL Fab; E02-INT Fab
[9]
  fold lower affinity than for human B7-H4 antigen: ~100 fold
[10]
  Kd: 405 nM
[11]
  Kd: 3.7 nM
[12]
  Kd: 3.94 nM
[13]
  Kd: 1.21 nM
[14]
  Kd: 1.2 nM

B4: E02-GLY-maia (antibody, human IgG1, kappa, V domains shown)
VH: QVQLQQWGAGLLKPSETLSLACTVYGGSFSGYYWNWIRQPPGKGLEWIGEIYHSGSTSYNPSLKSRVTISVDTSKNQFSLKLSSVTAADTAVYYCARVLYNWNVDSWGQGTLVTVSS
VL: DIQMTQSPSSLSASVGDRVTITCRASQDIRNDVGWYQQKPGKAPKRLIYAASRLQSGVPSRFSGSGSGTEFTLTISSLQPEDFATYYCLQHNSYPRTFGQGTKVEIKR
notes: Germlined with a Y substitution, Maia format
[15]
  binding result: binds
[16]
  binding result: binds

B5: E02-GLQ-maia (antibody, human IgG1, kappa, V domains shown)
VH: QVQLQQWGAGLLKPSETLSLACTVYGGSFSGYYWNWIRQPPGKGLEWIGEIQHSGSTSYNPSLKSRVTISVDTSKNQFSLKLSSVTAADTAVYYCARVLYNWNVDSWGQGTLVTVSS
VL: DIQMTQSPSSLSASVGDRVTITCRASQDIRNDVGWYQQKPGKAPKRLIYAASRLQSGVPSRFSGSGSGTEFTLTISSLQPEDFATYYCLQHNSYPRTFGQGTKVEIKR
notes: Germlined with a Q substitution, Maia format
[17]
  binding result: binds
[18]
  binding result: binds

B6: E02-GL (ZY0EQD_E02, germlined) (antibody, V domains shown)
VH: QVQLQQWGAGLLKPSETLSLACTVYGGSFSGYYWNWIRQPPGKGLEWIGEINHSGSTSYNPSLKSRVTISVDTSKNQFSLKLSSVTAADTAVYYCARVLYNWNVDSWGQGTLVTVSS
VL: DIQMTQSPSSLSASVGDRVTITCRASQDIRNDVGWYQQKPGKAPKRLIYAASRLQSGVPSRFSGSGSGTEFTLTISSLQPEDFATYYCLQHNSYPRTFGQGTKVEIK
notes: AF647-labelled in flow cytometry; also called EQD-E02_GL; ZY0EQD-E02-GL
[19]
  EC50 (read off the curve): ~0.5 nM
